Measurements as given in publication PMC3675483 (Nucleic Acids Research, 2013).

Assays:
[1] = target: Schmallenberg virus (SBV) nucleocapsid (N) protein (Schmallenberg virus); test: negative-stain electron microscopy with single-particle averaging
[2] = target: Schmallenberg virus (SBV) nucleocapsid (N) protein (Schmallenberg virus); test: SEC
[3] = target: Schmallenberg virus (SBV) nucleocapsid (N) protein (Schmallenberg virus); test: crystal structure
[4] = target: Selenomethionine-substituted SBV N protein (Schmallenberg virus); test: crystal structure
[5] = target: the molecule itself; test: SEC
[6] = target: BUNV N (nucleocapsid) wild type (Bunyamwera virus, UniProt P16495 1-233); test: fluorescence polarization
[7] = target: T1, SBV N (nucleocapsid) wild type (Schmallenberg virus isolate BH80/11-1, UniProt H2AM13 1-233); test: fluorescence polarization
T1 sequence: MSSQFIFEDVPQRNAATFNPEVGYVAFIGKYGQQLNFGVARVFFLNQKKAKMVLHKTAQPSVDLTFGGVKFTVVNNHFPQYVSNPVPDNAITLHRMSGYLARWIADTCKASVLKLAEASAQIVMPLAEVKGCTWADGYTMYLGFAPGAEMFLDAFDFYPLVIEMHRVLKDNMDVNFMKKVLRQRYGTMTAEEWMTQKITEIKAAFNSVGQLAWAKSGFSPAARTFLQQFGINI

Schmallenberg virus (SBV) nucleocapsid (N) protein (natural protein)
stoichiometry N [1]: 4
stoichiometry N [2]: 4
stoichiometry N [3]: 4

Selenomethionine-substituted SBV N protein (natural protein)
stoichiometry N [4]: 4

B1: Bunyamwera virus (BUNV) nucleocapsid (N) protein (natural protein)
chain: MIELEFHDVAANTSSTFDPEVAYANFKRVHTTGLSYDHIRIFYIKGREIKTSLAKRSEWEVTLNLGGWKITVYNTNFPGNRNNPVPDDGLTLHRLSGFLARYLLEKMLKVSEPEKLIIKSKIINPLAEKNGITWNDGEEVYLSFFPGSEMFLGTFRFYPLAIGIYKVQRKEMEPKYLEKTMRQRYMGLEAATWTVSKLTEVQSALTVVSSLGWKKTNVSAAARDFLAKFGINM
stoichiometry N [5]: 4

AGUAGUGUACUCCACACUACAAACUUGCUAUUGUUGAAAAUCGCUGUG (ssRNA) [BUNV48AG]
Kd [6]: 62.9 ± 5 nM
Kd [7]: 21.3 ± 1 nM
